The source of these data is publication doi:10.1101/2024.12.26.630380.

Assay in all cases: single-molecule fluorescence
For one data set, the target named is T1, pMcsB (Geobacillus stearothermophilus (printed …, UniProt P0DMM5)).
T1 sequence: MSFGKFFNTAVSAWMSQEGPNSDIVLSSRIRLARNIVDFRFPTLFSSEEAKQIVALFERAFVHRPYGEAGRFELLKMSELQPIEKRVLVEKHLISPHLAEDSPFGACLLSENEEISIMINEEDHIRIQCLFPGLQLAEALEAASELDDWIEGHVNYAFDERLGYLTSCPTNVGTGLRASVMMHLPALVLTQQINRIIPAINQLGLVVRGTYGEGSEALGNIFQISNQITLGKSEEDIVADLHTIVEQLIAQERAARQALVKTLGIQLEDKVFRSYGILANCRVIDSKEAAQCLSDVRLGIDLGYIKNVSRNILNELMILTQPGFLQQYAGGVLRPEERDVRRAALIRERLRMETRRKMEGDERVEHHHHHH

Another data set has as its target T2, CtsR (Geobacillus stearothermophilus (printed …, UniProt C3W947)).
T2 sequence: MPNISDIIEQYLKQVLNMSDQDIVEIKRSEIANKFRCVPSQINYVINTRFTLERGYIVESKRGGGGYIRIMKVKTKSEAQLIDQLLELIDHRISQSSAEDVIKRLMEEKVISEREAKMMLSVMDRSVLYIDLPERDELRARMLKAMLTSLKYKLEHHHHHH

In the next data set the target is T3, pMcsB-HaloTag (Geobacillus stearothermophilus (printed …, UniProt P0DMM5 1-363)).
T3 sequence: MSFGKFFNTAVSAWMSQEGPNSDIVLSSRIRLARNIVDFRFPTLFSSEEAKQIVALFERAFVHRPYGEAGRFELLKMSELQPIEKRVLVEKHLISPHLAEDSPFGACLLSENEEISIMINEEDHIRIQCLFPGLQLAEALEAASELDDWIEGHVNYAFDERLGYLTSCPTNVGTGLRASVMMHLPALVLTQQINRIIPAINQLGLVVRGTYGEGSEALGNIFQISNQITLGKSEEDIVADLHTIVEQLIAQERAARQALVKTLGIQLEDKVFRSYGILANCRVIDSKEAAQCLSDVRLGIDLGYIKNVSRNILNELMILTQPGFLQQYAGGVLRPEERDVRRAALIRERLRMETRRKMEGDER

B1: cognate Cy3 DNA probe (T7 label) (dsDNA)
DNA 1: CGATTACGGCAATTCAGGAATACCGCTAATG
DNA 2: GCTGATTAAGGTCAAATATAGTCAAAATAGAGTTCATTAGCGGTATTCCTGAATTGCCGTAATCG
DNA 3: CTCTATTTTGACTATATTTGACCTTAATCAGC
modifications: amino-C6-dT at T7 of strand 3 (S8 printed split around it)
In general, Kd refers to a measure of binding affinity in units of concentration. Read a low Kd as higher affinity. As to B1, the binding result with pMcsB and with pMcsB-HaloTag was “no binding” in each case. In addition, the Kd with CtsR was about 12 nM.
